B1: 5KPH (parent)
chain: EEKRQVKQVAKEKLLEQSPNSKVQVRRVQKQGNTIRVELELRTNGKKENYTVEVERQGNTWTVKRITRT

Variants of: B1
Experiment: folding stability dG (cDNA display proteolysis); higher = more stable
Details: PBS, room temperature

Folding stability dG [kcal/mol]: each site, then its substitutions
E12: T 3.6, H 3.53, S 3.79, Q 4.02, I 3.56, Y 2.83, F 2.78, K 3.83, N 3.73, D 4.17, W 2.92, M 3.67, G 3.34, P 1.8, C 3.52, A 4.15, L 3.47, V 3.21, R 3.89
A10: Q 1.91, Y 1.96, R 2.02, F 2.24, E 1.78, C 3.26, W 2.27, M 2.73, N 1.88, T 2.76, S 2.92, G 2.6, K 1.92, V 3.78, D 1.8, H 1.69, I 4.24, P 1.77, L 3.55
Q5: C 3.54, L 3.9, I 3.95, H 3.77, A 3.93, G 3.64, Y 3.64, E 3.88, M 4.07, S 3.84, V 3.73, R 4.19, K 3.86, W 3.62, P 2.86, N 3.54, F 3.83, D 3.73, T 3.93
K11: R 3.94, D 1.94, L 3.99, H 2.85, T 3.86, E 3.44, A 3.8, V 4.49, S 3.8, W 3.24, N 2.38, M 4.37, Q 3.45, F 3.33, C 3.75, G 2.74, P 2.01, Y 3.32, I 4.55
V6: N 1.92, Y 3.13, T 2.66, K 2.05, F 2.99, W 3.61, R 1.97, E 2.28, A 4.84, D 1.95, L 3.46, S 3.37, C 3.31, P 3.55, G 3.48, Q 2.78, H 2.57, M 3.03, I 4.24
K13: G 3.55, C 3.62, E 2.79, F 3.99, D 1.86, A 4.53
K7: N 3.39, H 3.57, D 3.14, S 4.63, L 4.49, C 4.11, G 4.38, P 2.66, R 3.85, I 4.82, Y 3.86, T 4.58, E 4.5, F 4.07, Q 4.19, V 4.86, M 4.8
R4: V 3.34, T 3.69, S 3.72, W 3.79, N 3.72, M 3.84, P 2.55, L 3.54, K 3.9, Q 3.81, Y 3.64
V9: D 1.82, E 2.33, T 3.15, G 1.81, I 4.22, K 3.39, R 3.07, P 1.9, S 2.4, L 4.16, W 2.74, N 2.18, Y 3.38, H 2.88, A 3.39, C 3.28, F 3.82, M 3.83, Q 3.26
Q8: K 4.16, Y 2.78, V 3.31, R 3.92, F 3.03, P 2.29, L 3.51, E 3.74, W 2.56, H 3.62, S 3.55, I 3.76, M 3.59, N 3.57, D 3.67, A 3.76, C 3.49, T 3.51, G 3.2
